This assay deals with human μ receptor (human) (UniProt P35372).
UniProt P35372, sequence (P35372 whole entry): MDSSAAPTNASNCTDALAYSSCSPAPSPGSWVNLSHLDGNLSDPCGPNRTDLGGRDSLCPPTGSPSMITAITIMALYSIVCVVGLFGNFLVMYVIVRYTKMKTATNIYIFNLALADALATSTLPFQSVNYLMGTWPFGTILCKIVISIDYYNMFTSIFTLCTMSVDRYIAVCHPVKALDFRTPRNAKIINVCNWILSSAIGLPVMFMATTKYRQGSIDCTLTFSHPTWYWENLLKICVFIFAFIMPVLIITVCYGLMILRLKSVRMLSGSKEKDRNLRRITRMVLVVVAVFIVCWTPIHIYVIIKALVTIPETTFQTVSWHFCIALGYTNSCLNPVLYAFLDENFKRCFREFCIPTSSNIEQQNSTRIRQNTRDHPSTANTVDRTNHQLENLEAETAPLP

For DAMGO (peptide), the EC50 of the FRET signal increase (cAMP decrease) of the Epac sensor H187 in single HEK293 cells co-expressing μR, increasing concentrations of DAMGO, no forskolin pre-treatment amounted to 91 pM.

(Values after publication PMC5438440.)
